The RNAGym collection of RNA variant scans (doi:10.1073/pnas.2313332121)
Fewer inactive variants are shown than the library holds.

B1: TPR 5TU (parent)
chain: GGAUCUUCUCGAUCUAACAAAAAAGACAAAUCUGCCACAAAGCUUGAGAGCAUCUUCGGAUGCAGAGGCGGCAGCCUUCGGUGGCGCGAUAGCGCCAACGUUCUCAACUAUGACACGCAAAACGCGUGCUCCGUUGAAUGGAGUUUAUCAUG

Variants of: B1
Assay: polymerase ribozyme fitness, log enrichment relative to wild type (log ratio); higher = more active; in vitro selection for triplet polymerase activity
How it was run: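 The heterodimeric triplet polymerase ribozyme's subunits were each mutagenized into PCR-built libraries and transcribed. Every library was selected once, in triplicate, by annealing with a biotinylated primer, the partner subunit and triplets, incubating frozen at −7 °C, gel-excising extended constructs, capturing on streptavidin beads and running RT-PCR. Input and output libraries were Illumina-sequenced, with genotypes kept only at ≥10 input reads and ≥1 read per output. Fitness, from inverse-variance-weighted replicate averages, is the base-2 logarithm of genotype enrichment over wild-type enrichment.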
For C54A C93G U135G, the “polymerase ribozyme fitness (log ratio)” value was at most -4.2.
For U53A G59C C76G C85U A89C A97C A107U G117U G133A U139G, the “polymerase ribozyme fitness (log ratio)” value was at most -4.2.
For U6C U9A A30U A49U C85U U146C, the “polymerase ribozyme fitness (log ratio)” value was at most -4.2.
With A19U C96G C114U the “polymerase ribozyme fitness (log ratio)” value was -2.99.
In the case of U53C C69U C75A C93U A115C, the “polymerase ribozyme fitness (log ratio)” value is reported as at most -4.2.
In the case of G46C G50U A52C A60U G80C C95U A150G, the “polymerase ribozyme fitness (log ratio)” value is reported as at most -4.2.
With A37G A66U C96A C103U the “polymerase ribozyme fitness (log ratio)” value was at most -4.2.
With U61A A66C G74A U90G A91G G133U A138C the “polymerase ribozyme fitness (log ratio)” value was at most -4.2.
In the case of U7C A21C A24C G62C C76A G133C, the “polymerase ribozyme fitness (log ratio)” value is reported as at most -4.2.
With A24U C96G the “polymerase ribozyme fitness (log ratio)” value was -0.301.
With C8U A28U G62U A113C the “polymerase ribozyme fitness (log ratio)” value was at most -4.2.
In the case of C18G G42A C54U G94A, the “polymerase ribozyme fitness (log ratio)” value is reported as at most -4.2.
For A41C A97G A121G, the “polymerase ribozyme fitness (log ratio)” value was -0.295.
In the case of A17G G58C C72U G152A, the “polymerase ribozyme fitness (log ratio)” value is reported as -2.87.
For G42A A142C U148G, the “polymerase ribozyme fitness (log ratio)” value was at most -4.2.
With C14G C27G G94A the “polymerase ribozyme fitness (log ratio)” value was at most -4.2.
With C10G U55A C69G C93U C103G C116A the “polymerase ribozyme fitness (log ratio)” value was at most -4.2.
With U4A A16U A113C A115U the “polymerase ribozyme fitness (log ratio)” value was at most -4.2.
For C14A C35G G59C A64C A73G G141U, the “polymerase ribozyme fitness (log ratio)” value was at most -4.2.
For C14A A37U C75G G94A A113G C114G C149A, the “polymerase ribozyme fitness (log ratio)” value was at most -4.2.
With C5G C18A A23G C54G G67A C93G C99G the “polymerase ribozyme fitness (log ratio)” value was at most -4.2.
In the case of C32A C85U, the “polymerase ribozyme fitness (log ratio)” value is reported as -4.06.
For A23C C27U A30G C93G U101A U104G A107U, the “polymerase ribozyme fitness (log ratio)” value was at most -4.2.
In the case of U55A A91C, the “polymerase ribozyme fitness (log ratio)” value is reported as at most -4.2.
With A91C the “polymerase ribozyme fitness (log ratio)” value was at most -4.2.
For A23U G50A A60C A66U C85U C95G A122C, the “polymerase ribozyme fitness (log ratio)” value was at most -4.2.
For A39G G42A C87G, the “polymerase ribozyme fitness (log ratio)” value was at most -4.2.
For C54G G83U C108U A115G G143A, the “polymerase ribozyme fitness (log ratio)” value was at most -4.2.
In the case of U55G U90G A97G U135G, the “polymerase ribozyme fitness (log ratio)” value is reported as at most -4.2.
For U13G C14G U31G, the “polymerase ribozyme fitness (log ratio)” value was -1.43.
With C18U C57G U61A C87U A89U C116U C118G A122G U139A the “polymerase ribozyme fitness (log ratio)” value was at most -4.2.
In the case of C10G G58A G59C G65A C95G C96A A120C, the “polymerase ribozyme fitness (log ratio)” value is reported as at most -4.2.
For A17G C72U A147C, the “polymerase ribozyme fitness (log ratio)” value was -0.924.
For A20G C27G G67C U78G A89U C93G G124A U151G, the “polymerase ribozyme fitness (log ratio)” value was at most -4.2.
For A60G G94A U102A C123G, the “polymerase ribozyme fitness (log ratio)” value was -1.46.
With A22U C57A the “polymerase ribozyme fitness (log ratio)” value was -0.719.
With G83U C95U C123U G143U the “polymerase ribozyme fitness (log ratio)” value was -3.65.
For A60U G81U C85U G92U C93G C96A C103U G128A, the “polymerase ribozyme fitness (log ratio)” value was at most -4.2.
For C8U G88U C93U, the “polymerase ribozyme fitness (log ratio)” value was -4.14.
In the case of C85U C116U, the “polymerase ribozyme fitness (log ratio)” value is reported as -0.233.
For C10U A30U A49C C87U A89G C95G U104C C116U A119U G136C, the “polymerase ribozyme fitness (log ratio)” value was at most -4.2.
For G50A C93G G124A C125U G133A U135G A150G, the “polymerase ribozyme fitness (log ratio)” value was at most -4.2.
In the case of U45A G83U C85G C95U, the “polymerase ribozyme fitness (log ratio)” value is reported as at most -4.2.
In the case of C93A U101C G124U, the “polymerase ribozyme fitness (log ratio)” value is reported as -2.74.
With C14G A28U U55G A89U C96A G126A G128C G140C the “polymerase ribozyme fitness (log ratio)” value was at most -4.2.
For A19U U44G G50C A73G C76A G140A, the “polymerase ribozyme fitness (log ratio)” value was at most -4.2.
For G92C G124U G152U, the “polymerase ribozyme fitness (log ratio)” value was -3.69.
With A24U G34U G42A U55G A91C G94A the “polymerase ribozyme fitness (log ratio)” value was -3.62.
With C96U C123A the “polymerase ribozyme fitness (log ratio)” value was -0.106.
With G58A C76A G80C C85U A89G U90C U101G C149A the “polymerase ribozyme fitness (log ratio)” value was at most -4.2.
With C27U A37C C51U C57U C95U C125A the “polymerase ribozyme fitness (log ratio)” value was -4.06.
In the case of A29C G94A A110U G124A A147U, the “polymerase ribozyme fitness (log ratio)” value is reported as at most -4.2.
With A12C A52C C54U U145A the “polymerase ribozyme fitness (log ratio)” value was -3.53.
In the case of C27G A28C G48A U55A G68C C87U C108G, the “polymerase ribozyme fitness (log ratio)” value is reported as at most -4.2.
In the case of A16G A17G C57U A64C A91U C95U C118G G124A G126A G133C, the “polymerase ribozyme fitness (log ratio)” value is reported as at most -4.2.
In the case of A52U A122G, the “polymerase ribozyme fitness (log ratio)” value is reported as -3.43.
In the case of G50U G80A G92A A115U, the “polymerase ribozyme fitness (log ratio)” value is reported as at most -4.2.
For C35A A52C C79G C96U U127C C149A, the “polymerase ribozyme fitness (log ratio)” value was at most -4.2.
For U55A U90C C95U U146C C149A, the “polymerase ribozyme fitness (log ratio)” value was at most -4.2.
For C14G A29G C54U C132G, the “polymerase ribozyme fitness (log ratio)” value was at most -4.2.
For A22C A115C C129G, the “polymerase ribozyme fitness (log ratio)” value was at most -4.2.
In the case of A12U A21C G70C G84U C132A G136A A142U, the “polymerase ribozyme fitness (log ratio)” value is reported as at most -4.2.
For A41G A49U G59U C85A C105U A106G A121U U134C, the “polymerase ribozyme fitness (log ratio)” value was at most -4.2.
With C43U C95A the “polymerase ribozyme fitness (log ratio)” value was -4.15.
For A41C C105A, the “polymerase ribozyme fitness (log ratio)” value was -2.1.
For A16U G50A C76U, the “polymerase ribozyme fitness (log ratio)” value was -3.4.
With C54U U148A the “polymerase ribozyme fitness (log ratio)” value was -3.74.
For A29U A97U A115U G124C U134C U148A, the “polymerase ribozyme fitness (log ratio)” value was at most -4.2.
With U55A G58C the “polymerase ribozyme fitness (log ratio)” value was -0.661.
With C96U U145A A150U the “polymerase ribozyme fitness (log ratio)” value was 0.912.
For A41G A49C U82G U90G G133A, the “polymerase ribozyme fitness (log ratio)” value was at most -4.2.
In the case of A28G U55G G58C G88C G140U, the “polymerase ribozyme fitness (log ratio)” value is reported as at most -4.2.
In the case of U6G A41C G42A U56C C85A C99A, the “polymerase ribozyme fitness (log ratio)” value is reported as at most -4.2.
For A47U G126C, the “polymerase ribozyme fitness (log ratio)” value was -0.0812.
In the case of A23G G58U C108G U135G, the “polymerase ribozyme fitness (log ratio)” value is reported as at most -4.2.
For U6G A122C, the “polymerase ribozyme fitness (log ratio)” value was -0.304.
For C14U C76A C85U, the “polymerase ribozyme fitness (log ratio)” value was -2.67.
In the case of C14U C35U C85U A106G A115G, the “polymerase ribozyme fitness (log ratio)” value is reported as -3.81.
With U56G C103A A122U U146A the “polymerase ribozyme fitness (log ratio)” value was -2.78.
With A20U C85G C125A U145C the “polymerase ribozyme fitness (log ratio)” value was -3.41.
For U55G G81A U139C, the “polymerase ribozyme fitness (log ratio)” value was at most -4.2.
For G11C A66U C96A C108G, the “polymerase ribozyme fitness (log ratio)” value was at most -4.2.
With U31G C95G C105G the “polymerase ribozyme fitness (log ratio)” value was at most -4.2.
